# From patent US7745574B2, “Compounds that regulate apoptosis” (The Burnham Institute, priority 2005, dated 2010)
# Where a SMILES comes first, the peptide text is derived from it. Bridges are numbered along the chain shown (N, C = ends). [ ]: non-standard residue; d: D form. The star is where a group is joined. FITC = O=C1OC2(c3ccc(O)cc3Oc3cc(O)ccc32)c2ccc(NC(=S)*)cc21; Ahx = NCCCCCC(=O)O
# Key:
# Bcl-2 [1] = biological target: T1, Bcl-2 (Homo sapiens, UniProt P10415); assay: Immunoprecipitation of endogenous Bcl-2 by anti-Bcl-2/BH3 antibody in treated cells; type: cell-based; design: precipitated endogenous Bcl-2 in cells treated with L-NuBCP-9-r8 or D-NuBCP-9-r8; endogenous in cells
# Target sequence in this assay (P10415 whole entry, species assumed): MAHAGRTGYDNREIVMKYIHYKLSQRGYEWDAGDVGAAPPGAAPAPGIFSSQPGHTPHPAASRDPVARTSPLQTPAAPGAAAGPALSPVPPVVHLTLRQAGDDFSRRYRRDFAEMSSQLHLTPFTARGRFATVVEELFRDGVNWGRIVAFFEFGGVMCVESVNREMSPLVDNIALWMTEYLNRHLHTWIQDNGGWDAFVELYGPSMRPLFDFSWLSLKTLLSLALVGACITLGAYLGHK
# Bcl-2 [2] = biological target: T1, Bcl-2; assay: Bcl-2 conformational change, anti-Bcl-2/BH3 antibody staining of HEK293T cells transfected with Bcl-2; type: cell-based; design: expressed in transfected cells; host or cells: HEK293T; conditions: flow cytometry
# Procedure: Such a Bcl-2 conformation is recognized by an anti-Bcl-2 antibody raised against the Bcl-2 BH3 domain. To determine whether NuBCP-9 induced a Bcl-2 conformational change, flow cytometric assays were conducted which HEK293T cells transfected with Bcl-2 were exposed to NuBCPs and subsequently stained with the anti-Bcl-2/BH3 antibody.
# Target sequence in this assay (P10415 whole entry): as the sequence (P10415 whole entry, species assumed) above
# GST [3] = biological target: T2, GST (Schistosoma japonicum, UniProt P08515); assay: Circular dichroism (CD) spectroscopy, GST; type: binding
# T2 sequence (P08515 whole entry): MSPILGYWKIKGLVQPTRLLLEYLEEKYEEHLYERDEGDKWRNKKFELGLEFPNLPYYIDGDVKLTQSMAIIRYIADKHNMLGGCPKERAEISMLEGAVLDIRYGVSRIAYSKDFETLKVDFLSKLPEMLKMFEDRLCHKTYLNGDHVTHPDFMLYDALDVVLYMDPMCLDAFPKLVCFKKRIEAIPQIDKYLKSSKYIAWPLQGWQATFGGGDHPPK
# Procedure: (§1) Circular dichroism (CD) spectroscopy. Stock solutions of 3 mM peptide in 30% acetonitrile/water were added to 0.5 mL of 2 μM purified GST-proteins in PBS, pH 7.6. CD spectra were obtained in a 0.2 cm pathlength cell at 20° C. using an AVIV 62 DS spectropolarimeter for a wavelength range from 200 to 260 nm with a step size of 1 nm averaged for 5 sec. Three spectra were corrected for background and averaged for each sample. The Kd was determined using nonlinear regression analysis for a one-site-binding model (χ2>0.98). Stoichiometry was determined from a […] (Jones, G. et al. 2002 Tet. Let. 43 :6079-6082).
# GST-Bcl-2 [4] = biological target: T3, GST-Bcl-2 (Homo sapiens, UniProt P10415); assay: Circular dichroism (CD) spectroscopy, GST-Bcl-2; type: binding
# T3 construct: made in house
# T3 sequence (P10415 whole entry): as the sequence (P10415 whole entry, species assumed) above
# Procedure: as §1
# Bcl-2 [5] = biological target: T1, Bcl-2; assay: FP competition assay on Bcl-2; type: binding
# Procedure: (§2) Fluorescence polarization (FP) assays. GST-Bcl-2, GST-Bcl-XL, or GST protein was briefly incubated with FITC-conjugated peptide with or without competitors in Greiner Fluotrac 600 96-well microplates. Fluorescence polarization was recorded using an Analyst HT 96-384 microplate reader (Molecular Devices, Sunnyvale, Calif.) with excitation wavelength set at 485 nm and dynamic polarizer for emission at 530 nm.
# Target sequence in this assay (P10415 whole entry): as the sequence (P10415 whole entry, species assumed) above
# Bcl-XL = Bcl-XL (Homo sapiens, UniProt Q07817); assay: Circular dichroism (CD) spectroscopy, Bcl-XL; type: binding
# Sequence of Bcl-XL (Q07817 whole entry, species assumed): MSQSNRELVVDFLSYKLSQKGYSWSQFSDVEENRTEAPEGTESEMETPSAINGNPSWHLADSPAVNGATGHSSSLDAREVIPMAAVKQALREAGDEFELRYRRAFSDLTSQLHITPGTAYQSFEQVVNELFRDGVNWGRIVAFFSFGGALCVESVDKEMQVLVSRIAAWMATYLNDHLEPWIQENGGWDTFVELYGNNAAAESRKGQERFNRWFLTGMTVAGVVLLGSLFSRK
# Procedure: as §1
# GST-Bcl-XL = GST-Bcl-XL (Homo sapiens, UniProt Q07817); assay: Fluorescence polarization (FP) assay, GST-Bcl-XL; type: binding
# Sequence of GST-Bcl-XL (Q07817 whole entry, species assumed): as above
# Procedure: as §2
# GST [6] = biological target: T2, GST; assay: Fluorescence polarization (FP) assay, GST; type: binding
# Procedure: as §2
# GST-Bcl-2 [7] = biological target: T3, GST-Bcl-2; assay: Fluorescence polarization (FP) assay, GST-Bcl-2; type: binding
# Procedure: as §2
# Jurkat or CEM cells = assay: Apoptosis in Jurkat or CEM cells stably expressing Bcl-2; type: cell-based
# Procedure: Cell culture. H460 lung cancer cells were maintained in RPMI 1640 medium supplemented with 10% fetal bovine serum (FBS). HEK293T embryonic kidney cells were grown in DME medium supplemented with 10% FBS. Jurkat and Jurkat cells stably expressing Bcl-2 were kindly provided by Dr. John Reed, and they were maintained in RPMI1640 medium.
# H460 lung cancer cells = assay: Apoptosis in H460 lung cancer cells; type: cell-based
# [8] = system: various cancer cell lines; assay: Apoptosis in various cancer cell lines; type: cell-based
# Procedure: (§3) Apoptosis assays—For nuclear morphological change analysis, cells were trypsinized, washed with PBS, fixed with 3.7% paraformaldehyde, and stained with DAPI (4,6-diamidino-2-phenylindole) (50 μg/ml) to visualize the nuclei by UV-microscopy. The percentages of apoptotic cells were determined by counting 300 GFP-positive cells, scoring cells having nuclear fragmentation and/or chromatin condensation.
# Bcl-2 [9] = biological target: T1, Bcl-2; assay: Co-immunoprecipitation with Bcl-2 in HEK293T cells; type: binding; design: expressed in transfected cells; host or cells: HEK293T
# Procedure: Nur77 peptide binds anti-apoptotic Bcl-2 family members. Nur77-peptide binds Bcl-B, Bfl-1, and Bcl-2, but not Mcl-1 and Bcl-xL. […] The expression vector for the GFP-Nur77/489-497 fusion was transfected into HEK293T cells together with or without the indicated expression vector for myc-tagged Bcl-2 family member. Cell lysates were prepared and analyzed for interaction of Nur77/489-497 with Bcl-2 family members by co-immunoprecipitation assay using anti-Myc antibody. Immunoprecipitates were then separated on SDS/PAGE and immunoblotted using anti-GFP antibody. […] Nur77/Bcl-2 interaction assays—Reporter gene assays using NurRE-tk-CAT in CV-1 cells, and GST pull-down assay were described previously (Li, et al. 2000 Science 289:1159-1164). For the mammalian two-hybrid assays, CV-1 cells were co-transfected with pcDNA-Gal4TAD-Nur77 or pcDNA-Gal4TAD-Nur77/ΔDBD and pcDNA-Gal4 DBD-Bcl-2/ΔTM along with a luciferase reporter gene driven by four copies of the Gal-4-binding site. The cells were harvested and reporter gene activity was measured. For Co-IP assays, HEK293T cells were transiently transfected with various expression plasmids using a modified calcium phosphate precipitation method (Wu et al, 1997) in the presence of caspase inhibitors (zVAD-fmk) to prevent degradation of Nur77 protein due to apoptosis. Cells were suspended in lysis buffer (50 mM Tris-HCl, PH7.4; 150 mM NaCl; 20 mM EDTA; 1% NP-40; 1 mM PMSF; 50 μg/ml Leupeptin; […]; 0.1 mM Na3VO4; and 1 mM DTT). Cells extracts were cleared by incubation with the Protein A/G plus Agarose beads (Santa Cruz) and then incubated with appropriate antibody and 30 μl of Protein A or G plus Agarose beads overnight at 4° C. […] Immunoreactive products were detected by chemiluminescence with an enhanced chemiluminescence system (ECL) (Amersham).
# Target sequence in this assay (P10415 whole entry): as the sequence (P10415 whole entry, species assumed) above
# [10] = system: normal primary mammary epithelial cells; assay: Apoptosis in normal primary mammary epithelial cells; type: cell-based
# Procedure: as §3
# [11] = system: ZR-75-1 breast cancer cells; assay: Apoptosis in ZR-75-1 breast cancer cells; type: cell-based; conditions: <10 μM peptide
# Procedure: as §3
# Bcl-2 [12] = biological target: T1, Bcl-2; assay: Binding to Bcl-2, method not stated; design: precipitated endogenous Bcl-2 in cells treated with L-NuBCP-9-r8 or D-NuBCP-9-r8; endogenous in cells
# Target sequence in this assay (P10415 whole entry, species assumed): as above
compound,measurement,setting,value
"t-Bid BH3 peptide-r8: BH3 peptide derived from pro-apoptotic Bcl-2 family member t-Bid, conjugated with r8 (Ac-EDIIRNIARHLAQVGDSMDRC[Ahx][dR][dR][dR][dR][dR][dR][dR][dR]-NH2; also: Cys thiol joined to chloroacetyl-Ahx by thioether) [reference compound]",precipitation of endogenous Bcl-2 by anti-Bcl-2/BH3 antibody,Bcl-2 [1],not
same,Bcl-2 immunofluorescence by anti-Bcl-2/BH3 antibody,Bcl-2 [2],did not show any Bcl-2 immunofluorescence
NuBCP-9/AA: unconjugated NuBCP-9 with Ala substituted for the terminal amino acids (Ac-ASRSLHSLAG[Ahx][dR][dR][dR][dR][dR][dR][dR][dR]-NH2; SMILES CC(=O)N[C@@H](C)C(=O)N[C@@H](CO)C(=O)N[C@@H](CCCNC(=N)N)C(=O)N[C@@H](CO)C(=O)N[C@@H](CC(C)C)C(=O)N[C@@H](Cc1c[nH]cn1)C(=O)N[C@@H](CO)C(=O)N[C@@H](CC(C)C)C(=O)N[C@@H](C)C(=O)NCC(=O)NCCCCCC(=O)N[C@H](CCCNC(=N)N)C(=O)N[C@H](CCCNC(=N)N)C(=O)N[C@H](CCCNC(=N)N)C(=O)N[C@H](CCCNC(=N)N)C(=O)N[C@H](CCCNC(=N)N)C(=O)N[C@H](CCCNC(=N)N)C(=O)N[C@H](CCCNC(=N)N)C(=O)N[C@H](CCCNC(=N)N)C(N)=O),effect on CD spectra for GST,GST [3],no effect
same,changes in GST-Bcl-2 protein CD spectra,"GST-Bcl-2 [4]; peptide 30 μM, GST-Bcl-2 2 μM",not
same,competition for binding of FITC-L-NuBCP-9-r8 or FITC-D-NuBCP-9-r8 to Bcl-2,Bcl-2 [5],did not
same,effect on CD spectra for Bcl-XL,Bcl-XL,no effect
FITC-NuBCP-9-r8: FITC-conjugated NuBCP-9-r8 peptide for FP assays ({FITC}-FSRSLHSLLG[Ahx][dR][dR][dR][dR][dR][dR][dR][dR]-NH2),FP of FITC-peptide induced by GST-Bcl-XL,GST-Bcl-XL,not
same,FP of FITC-peptide induced by GST,GST [6],not
same,FP of FITC-peptide induced by GST-Bcl-2,GST-Bcl-2 [7],concentration-dependent FP
FITC-NuBCP-9/AA-r8: FITC-conjugated NuBCP-9/AA-r8 peptide ({FITC}-ASRSLHSLAG[Ahx][dR][dR][dR][dR][dR][dR][dR][dR]-NH2),FP of FITC-peptide induced by GST-Bcl-2,GST-Bcl-2 [7],little affected
"Bad BH3 peptide-CC-Ant: Bad BH3 peptide, Ser replaced with Ala, disulfide-linked to Ant (Ac-NLWAAQRYGRELRRMADEFVDAFKKCCRQIKIWFQNRRMKWKK-NH2; disulfide 26-27; also: Bad BH3 peptide and Ant are two peptides joined by C26-C27 disulfide, no peptide bond)",effect of stable expression of Bcl-2 on induced apoptosis/cell death,Jurkat or CEM cells,attenuated
acetyl---GDWIDSILAFSRSLHSLLVDKKC-X-rrrrrrrr (Ac-GDWIDSILAFSRSLHSLLVDKKC[Ahx][dR][dR][dR][dR][dR][dR][dR][dR]-NH2; also: Cys thiol joined to chloroacetyl-Ahx by thioether) [NuBCP-20-r8],apoptotic potency compared with BH3 peptides derived from t-Bid,H460 lung cancer cells,more potent
same,apoptotic effects,[8],potent apoptotic effects
same,interaction with Bcl-2 by co-immunoprecipitation,Bcl-2 [9],binding
same,apoptosis,[10],resistant
same,apoptosis,[11],> 80%
"D-Bad BH3 peptide-CC-Ant: D-enantiomer of Bad BH3 peptide, disulfide-linked to Ant (Ac-NLWAAQRYGRELRRMADEFVDAFKKCCRQIKIWFQNRRMKWKK-NH2; disulfide 26-27; not fully specified (some residues); also: D-amino acids, extent within chain not given here) [reference compound]",apoptotic effect,"H460 lung cancer cells; H460 cells, peptides conjugated with CPP, 10 μM",not apoptotic
same,binding to Bcl-2,Bcl-2 [12],did not bind
"CC(=O)N[C@@H](Cc1ccccc1)C(=O)N[C@@H](CO)C(=O)N[C@@H](CCCNC(=N)N)C(=O)N[C@@H](CO)C(=O)N[C@@H](CC(C)C)C(=O)N[C@@H](Cc1c[nH]cn1)C(=O)N[C@@H](CO)C(=O)N[C@@H](CC(C)C)C(=O)N[C@@H](CC(C)C)C(N)=O [NuBCP-9, FSRSLHSLL] (Ac-FSRSLHSLL-NH2)",effect on CD spectra for GST,GST [3],no effect
same,Kd,GST-Bcl-2 [4],2.1 ± 0.2 µM
same,competition for binding of FITC-L-NuBCP-9-r8 or FITC-D-NuBCP-9-r8 to Bcl-2,Bcl-2 [5],competed
same,effect on CD spectra for Bcl-XL,Bcl-XL,no effect
CN[C@@H]1C[C@H]2O[C@@](C)([C@@H]1OC)n1c3ccccc3c3c4c(c5c6ccccc6n2c5c31)C(=O)NC4 [staurosporine],effect of stable expression of Bcl-2 on induced apoptosis/cell death,Jurkat or CEM cells,attenuated
"CN(C)CC[C@H](CSc1ccccc1)Nc1ccc(S(=O)(=O)NC(=O)c2ccc(N3CCN(Cc4ccccc4-c4ccc(Cl)cc4)CC3)cc2)cc1[N+](=O)[O-] [ABT-737, reference compound]",competition for binding of FITC-L-NuBCP-9-r8 or FITC-D-NuBCP-9-r8 to Bcl-2,Bcl-2 [5],failure
"Smac-peptide-r8: Smac peptide conjugated with r8, apoptosis-inducing comparison peptide (Ac-AVPIAQKC[Ahx][dR][dR][dR][dR][dR][dR][dR][dR]-NH2; also: Cys thiol joined to chloroacetyl-Ahx by thioether) [reference compound]",inhibition of co-precipitation of GFP-Nur77/489-497 with Bcl-2,Bcl-2 [9]; peptide added,not
same,Bcl-2 immunofluorescence by anti-Bcl-2/BH3 antibody,Bcl-2 [2],did not show any Bcl-2 immunofluorescence
